# T1: FAP100-HA (FAP100/Mia1p with a triple HA tag, in the rescued strain mia1R) (C. reinhardtii, UniProt A8I4E9 1-576)
# T1 sequence (looked up): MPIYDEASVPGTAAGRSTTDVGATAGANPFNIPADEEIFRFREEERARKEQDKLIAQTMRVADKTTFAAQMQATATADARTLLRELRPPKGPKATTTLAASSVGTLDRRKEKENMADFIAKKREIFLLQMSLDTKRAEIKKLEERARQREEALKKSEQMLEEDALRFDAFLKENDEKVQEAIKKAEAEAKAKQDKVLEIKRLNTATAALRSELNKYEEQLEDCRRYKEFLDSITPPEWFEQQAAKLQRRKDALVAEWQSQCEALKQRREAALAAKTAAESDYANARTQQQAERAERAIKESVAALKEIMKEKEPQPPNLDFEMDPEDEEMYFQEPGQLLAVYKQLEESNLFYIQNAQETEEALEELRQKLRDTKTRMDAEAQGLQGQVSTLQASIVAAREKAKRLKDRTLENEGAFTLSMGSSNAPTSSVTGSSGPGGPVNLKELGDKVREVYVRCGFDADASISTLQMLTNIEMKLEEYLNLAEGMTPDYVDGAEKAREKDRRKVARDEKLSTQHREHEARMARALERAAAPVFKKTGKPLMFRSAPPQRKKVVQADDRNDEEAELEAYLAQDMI
# Target: T1, FAP100-HA (FAP100/Mia1p with a triple …)
# Test: affinity purification with mass spectrometry
binder,measurement,value
"FAP73 (Mia2p), endogenous (natural protein, UniProt M1V4Y8 1-308, looked up) MDEEGSATARAKMMPQTLVLDHVSPATRLLEKRRQMFEVQEALEAQKQDFNRKEEVFKRREEALKLKDLELQESLIRFSKFLQENDSKRARAEKKANDEIKARIQKEKEIEQLTEVLEELKSEKERILEVLEKNMRYQHYLESVLEVADEYQEVADLLLRHATLSATNADLKDHQRKCSELAEKVRTELQIYVKQKTDEILNLNNQVAKLKTELEGYEAEAMVQEAKKDSSLQIASQRTLEYGQVVLSADNIFNRCRSKSSIGHPAESNPLHQLDVIGNFVSDLGSIIKQFKQEQAKRASLASRAEIE",stoichiometry N,1.83 to 2.89 FAP73 per FAP100

# From publication PMC3628515 (The Journal of Cell Biology, 2013)
